This passage reports reduction of the increased T-cell proliferation (3H-Thymidine) induced by MC38/ICAM-1 stimulator cells with Con A, reduction of the increased T-cell proliferation (3H-Thymidine) induced by MC38/LFA-3 stimulator cells with Con A and inhibition of the increased T-cell proliferation (3H-Thymidine) induced by MC38/B7-1 stimulator cells with Con A results from patent publication EP1865065A1.

Common to all, as to assay: cell-based or functional assay
Assay [1] has as its target murine Intercellular adhesion molecule-1 (ICAM-1, CD54) (murine) (UniProt P13597).
Sequence of UniProt P13597 (P13597 28-537): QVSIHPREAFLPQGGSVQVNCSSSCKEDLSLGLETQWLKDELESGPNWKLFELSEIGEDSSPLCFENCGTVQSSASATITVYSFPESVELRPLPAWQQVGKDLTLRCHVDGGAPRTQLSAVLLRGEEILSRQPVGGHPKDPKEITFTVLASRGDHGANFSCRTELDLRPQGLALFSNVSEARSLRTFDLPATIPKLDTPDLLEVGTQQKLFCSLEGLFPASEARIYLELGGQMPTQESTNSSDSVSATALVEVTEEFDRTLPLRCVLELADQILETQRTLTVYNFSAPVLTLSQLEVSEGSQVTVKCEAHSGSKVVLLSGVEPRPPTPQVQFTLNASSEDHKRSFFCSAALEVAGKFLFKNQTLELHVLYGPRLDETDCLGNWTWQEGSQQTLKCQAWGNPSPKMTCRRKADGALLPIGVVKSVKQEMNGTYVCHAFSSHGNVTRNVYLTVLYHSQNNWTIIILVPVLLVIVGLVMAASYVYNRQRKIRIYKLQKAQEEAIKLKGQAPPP
Assay [2] deals with murine LFA-3 (CD48) (murine) (UniProt P18181).
Sequence of UniProt P18181 (P18181 23-217): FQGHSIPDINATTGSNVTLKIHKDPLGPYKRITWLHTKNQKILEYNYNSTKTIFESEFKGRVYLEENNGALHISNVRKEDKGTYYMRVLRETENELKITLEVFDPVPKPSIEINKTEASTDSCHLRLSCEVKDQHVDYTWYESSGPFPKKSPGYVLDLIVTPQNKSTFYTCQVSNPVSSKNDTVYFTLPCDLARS
Assay [3] concerns the target murine B7-1 (CD80) (murine) (UniProt Q00609).
Sequence of UniProt Q00609 (Q00609 38-306): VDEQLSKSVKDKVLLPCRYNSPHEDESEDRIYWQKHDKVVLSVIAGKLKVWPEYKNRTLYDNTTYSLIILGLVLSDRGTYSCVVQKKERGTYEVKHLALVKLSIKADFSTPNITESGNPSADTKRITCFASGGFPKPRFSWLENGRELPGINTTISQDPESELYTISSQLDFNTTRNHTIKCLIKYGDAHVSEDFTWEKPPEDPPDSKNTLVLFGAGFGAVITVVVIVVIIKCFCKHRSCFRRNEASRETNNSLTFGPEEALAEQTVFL

In assay [1], “Hamster anti-murine CD54 (ICAM-1; clone 3E2) (antibody)” gave a reduction of the increased T-cell proliferation (3H-Thymidine) induced by MC38/ICAM-1 stimulator cells with Con A of 88%.

“Hamster anti-murine CD48 (BCM-1; clone HM48-1) (antibody)”: in assay [2], the reduction of the increased T-cell proliferation (3H-Thymidine) induced by MC38/LFA-3 stimulator cells with Con A came to 98%.

“Hamster anti-murine CD80 (B7-1; clone 16-10A1) (antibody)”: the inhibition of the increased T-cell proliferation (3H-Thymidine) induced by MC38/B7-1 stimulator cells with Con A in assay [3] is 83%.
